Test results as given in patent US20140004122A1 (published 2014).

Assays:
[1] = target: T1, cynomolgus monkey PCSK9, V5- and 6xHis-tagged (cynomolgus monkey, UniProt A0A7N9D9N8 150-747); test: KinExA solution equilibrium; free antibody captured on PCSK9-coated beads; cPCSK9 concentration adjusted to 50% active
T1 construct: also called cPCSK9-V5-6xHIS; cPCSK9; not shown: V5 tag and 6xHis tag

[2] = target: T1, cynomolgus monkey PCSK9, V5- and …; test: BIAcore SPR; antibody amine-coupled to CM5 chip, PCSK9 injected as analyte; pH 7.4
Protocol: Briefly, the surface plasmon resonance experiments were performed using Biacore 2000 optical biosensors (Biacore, GE Healthcare, Piscataway, N.J.).
Antibody binding kinetic parameters including kₐ (association rate constant), kd (dissociation rate constant), and KD (dissociation equilibrium constant) were determined using the BIA evaluation 3.1 computer program (BIAcore, Inc. Piscataway, N.J.).

PCSK1 (R&D Systems) = target: T2, PCSK1 (R&D Systems) (UniProt P29120 111-753, limits assumed); test: competition ELISA: 11F1 (0.4 µg/mL) pre-incubated with soluble convertase, then binding to plate-captured biotinylated PCSK9
T2 sequence (looked up): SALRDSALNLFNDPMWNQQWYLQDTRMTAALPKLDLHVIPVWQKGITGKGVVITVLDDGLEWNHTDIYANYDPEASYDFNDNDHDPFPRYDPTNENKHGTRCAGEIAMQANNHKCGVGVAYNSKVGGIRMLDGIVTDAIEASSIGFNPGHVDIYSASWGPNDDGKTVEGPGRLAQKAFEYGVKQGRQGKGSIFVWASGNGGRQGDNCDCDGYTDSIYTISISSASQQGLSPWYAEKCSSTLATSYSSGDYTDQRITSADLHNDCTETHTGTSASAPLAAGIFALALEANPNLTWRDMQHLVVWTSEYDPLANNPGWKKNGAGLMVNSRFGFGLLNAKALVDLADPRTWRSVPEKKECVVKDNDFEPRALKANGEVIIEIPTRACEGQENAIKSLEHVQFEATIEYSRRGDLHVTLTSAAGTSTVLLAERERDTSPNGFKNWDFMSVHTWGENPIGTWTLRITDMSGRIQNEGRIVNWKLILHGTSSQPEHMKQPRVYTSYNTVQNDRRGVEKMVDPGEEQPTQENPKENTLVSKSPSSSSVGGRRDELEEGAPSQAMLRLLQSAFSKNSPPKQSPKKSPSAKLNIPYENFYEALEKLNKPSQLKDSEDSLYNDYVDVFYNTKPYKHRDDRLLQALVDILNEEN

PCSK7 (R&D Systems) = target: T3, PCSK7 (R&D Systems) (UniProt Q16549 142-667, limits assumed); test: as above
T3 sequence (looked up): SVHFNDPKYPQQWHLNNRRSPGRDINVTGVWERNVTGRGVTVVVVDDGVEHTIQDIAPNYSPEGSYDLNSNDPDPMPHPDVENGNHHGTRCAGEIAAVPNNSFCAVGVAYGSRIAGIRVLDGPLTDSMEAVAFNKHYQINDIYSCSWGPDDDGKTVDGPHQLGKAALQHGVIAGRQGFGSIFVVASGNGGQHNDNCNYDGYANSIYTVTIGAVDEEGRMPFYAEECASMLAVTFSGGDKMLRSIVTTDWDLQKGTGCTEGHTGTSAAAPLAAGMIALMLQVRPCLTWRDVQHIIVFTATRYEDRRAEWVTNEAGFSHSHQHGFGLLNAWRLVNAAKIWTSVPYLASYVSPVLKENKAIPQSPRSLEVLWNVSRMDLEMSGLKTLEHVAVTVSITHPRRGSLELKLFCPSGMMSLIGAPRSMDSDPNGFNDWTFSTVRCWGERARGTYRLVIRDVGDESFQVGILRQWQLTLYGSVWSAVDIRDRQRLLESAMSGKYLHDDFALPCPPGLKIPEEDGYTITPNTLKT

[3] = target: T1, cynomolgus monkey PCSK9, V5- and …; test: KinExA solution equilibrium; free antibody captured on PCSK9-coated beads; cPCSK9 concentration adjusted to 50% active; remark: listed apart in the source
Description: Equilibrium dissociation constant (KD) were obtained from nonlinear regression of the two sets of competition curves using a one-site homogeneous binding model. The KinExA® Pro software was employed in the analysis.

[4] = target: T1, cynomolgus monkey PCSK9, V5- and …; test: BIAcore solution equilibrium; PCSK9 mixed with 21B12.1, free PCSK9 measured on immobilised 21B12

B1: 16F12 anti-PCSK9 human IgG4 antibody (antibody, V domains shown)
VH: QVHLVESGGGVVQPGRSLRLSCAASGFTFNSFGMHWVRQAPGKGLEWVALIWSDGSDEYYADSVKGRFTISRDNSKNTLYLQMNSLRAEDTAVYYCARAIAALYYYYGMDVWGQGTTVTVSS
VL: QSVLTQPPSVSAAPGQKVTISCSGSSSNIGNNFVSWYQQLPGTAPKLLIYDYNKRPSGIPDRFSGSKSGTSATLGITGLQTGDEADYYCGTWDSSLSAYVFGTGTRVTVLQ
notes: also called 16F12.1; 16F12, anti-PCSK9 huIgG4
Kd [1]: 0.016 nM
Kd [2]: 0.87 nM

B2: 11F1 anti-PCSK9 antibody (antibody, V domains shown)
VH: EVQLVESGGGLVQPGGSLRLSCAASGFTFSNYWMSWVRQAPGKGLEWVASIKQDGSEKYYVDSVKGRFAISRDNAKNSLFLQMNSLRAEDTAVYYCARDLVLMVYDIDYYYYGMDVWGQGTTVTVSS
VL: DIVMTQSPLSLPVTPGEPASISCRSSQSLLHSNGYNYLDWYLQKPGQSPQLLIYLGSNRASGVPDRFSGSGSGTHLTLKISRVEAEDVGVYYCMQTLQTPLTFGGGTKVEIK
notes: It was detected with anti-human Fc, so it is a whole human antibody
binding result (PCSK1 (R&D Systems)): no binding (tested: 0 to 20 µg/mL)
binding result (PCSK7 (R&D Systems)): no binding (tested: 0 to 20 µg/mL)

B3: 31H4 anti-PCSK9 human IgG4 antibody (from hybridoma) (antibody, V domains shown)
VH: EVQLVESGGGLVKPGGSLRLSCAASGFTFSSYSMNWVRQAPGKGLEWVSSISSSSSYISYADSVKGRFTISRDNAKNSLYLQMNSLRAEDTAVYFCARDYDFWSAYYDAFDVWGQGTMVTVSS
VL: QSVLTQPPSVSGAPGQRVTISCTGSSSNIGAGYDVHWYQQLPGTAPKLLISGNSNRPSGVPDRFSGSKSGTSASLAITGLQAEDEADYYCQSYDSSLSGSVFGGGTKLTVLQ
notes: also called 31H4.1; 31H4 IgG4
Kd [3]: 0.002 nM
Kd [2]: 0.19 nM

B4: 21B12 anti-PCSK9 human IgG4 antibody (from hybridoma) (antibody, V domains shown)
VH: QVQLVQSGAEVKKPGASVKVSCKASGYTLTSYGISWVRQAPGQGLEWMGWVSFYNGNTNYAQKLQGRGTMTTDPSTSTAYMELRSLRSDDTAVYYCARGYGMDVWGQGTTVTVSS
VL: QSALTQPASVSGSPGQSITISCTGTSSDVGGYNSVSWYQQHPGKAPKLMIYEVSNRPSGVSNRFSGSKSGNTASLTISGLQAEDEADYYCNSYTSTSMVFGGGTKLTVLQ
notes: also called 21B12.1; 21B12 IgG4
Kd [4]: 0.011 nM
Kd [2]: 0.36 nM
